Among the data in publication PMC4382993 are binding values, retold here.

The data set has as its target T1, Fur (Escherichia coli O157:H7 (EDL933?)) (UniProt P0A9B1).
T1 sequence: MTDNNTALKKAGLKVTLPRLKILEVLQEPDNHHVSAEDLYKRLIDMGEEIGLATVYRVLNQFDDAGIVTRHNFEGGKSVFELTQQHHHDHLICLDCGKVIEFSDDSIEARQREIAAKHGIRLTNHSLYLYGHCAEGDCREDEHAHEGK
The experiment in a line: EMSA. Conditions: BirA EMSA: 1 mM Tris-HCl pH 7.5, 0.1 mM EDTA, 0.2 mM DTT, 5 mM MgCl2, 10 mM KCl, 20 uM biotin, 1 mM ATP (DIG Gel Shift Kit); Fur EMSA: Invitrogen E33075 kit ….
Turning to “AACAGAAGACTGGTTGCTGGAGAGTCCTTCTCGGGTATCGATTGTCGAAGATAAACATATTTATTATTTTCATTTATTGAAAGACTTTTTTACATCATTACCAGATGCTTGCTTTATTGATAGTGAGCAGAGAGAGAATGCATTATTAATGATTGGTAAAGTTATCGACTATAAGGAGGAAATTATTTGATATTAATTACTCAATAATTTTTTTGTTTTCCTGAGAAAAATTATCAAGAGGTATATAGATGGATACATCAAATGCAACATCCGTTGTTAATGTGAGTGCGAGTTCTTC (double strand) [LEE Box1 fragment]”, the binding entry was “no binding”. As to “GACATTAAACTTGATCCTGGCGAGGCCAACAATATACAGCTTATTAATGATGCAAACACACCGCATAATAAAATTATAATAGAAAATGAATATATTAGAATAACTTTAGACCCATTAGAGCAAATAAGTATTTTATTGAATTCATTTAAAGATAATTATCTTAGCATTATTCAGGAATGATGATATGTCTCAATTAATGACCATTGGCTCACAGCCAATATTTTTAATTATTGTATTTTTTCTGTTATCATTACTGCCAA (double strand) [LEE Box5 fragment]”, the binding result was “no binding”.

For “GTTGGCGGCATCATTGTATCCGATGAAGATAATTGCTCTAGTTTATCAAATTGCTTATCGAGCAAAGAGGCGAGAGTATGTTGCATTATTGCTTTTGACATGTTTGCGCGATGATTATTATCTTTATGAAAAATTTGGCAAAGATACCACTTCTTATTAGACAGGAAAATACCCATTTGTTTATATTCGTTACTAACGGCCAGGATATTGCAGAGTCTGATAAATGTATCTGTTGGAACCTGACGAAAATCACCACTAAGCTCAATATATAGAACCCAGTAGTTTCCAAAATCG (double strand) [LEE Box4 fragment]”, the binding entry is “no binding”.
